System: ThserRS (seryl-tRNA synthetase, GME12055) (Trametes hirsuta AH28-2)
Experiment: fluorescence polarization
Details: 5 mM Mg2+; 25 mM HEPES pH 6.5, 5 mM MgCl2, 150 mM KCl, 1 mM DTT, 5% glycerol, 16 C, 30 min; probe 0.5 uM (EMSA) or 40 nM (FP); further truncations of the 32-bp probe gave …

lacA promoter 32-bp minimal probe (-462 to -431)
Kd: 920 nM

Reference: article PMC10433817
